In patent US20080146500A1, “Selective Vpac2 Receptor Peptide Agonists” (priority 2004, published 2008):
Ends that are not written are not given here.

How the values were obtained:
[1] = target: T1, rat VPAC1 receptor (Rattus norvegicus, UniProt P30083); test: Rat VPAC1 in vitro potency (cAMP generation, DiscoveRx) in transiently transfected CHO-PO cells; format: cell-based; details: CHO-PO cells transiently transfected with rat VPAC1; read-out: rVPAC1 in vitro potency (cAMP generation) EC50
T1 construct: expressed in transfected cells; host or cells: CHO-PO cells, transient
T1 sequence (P30083 31-459): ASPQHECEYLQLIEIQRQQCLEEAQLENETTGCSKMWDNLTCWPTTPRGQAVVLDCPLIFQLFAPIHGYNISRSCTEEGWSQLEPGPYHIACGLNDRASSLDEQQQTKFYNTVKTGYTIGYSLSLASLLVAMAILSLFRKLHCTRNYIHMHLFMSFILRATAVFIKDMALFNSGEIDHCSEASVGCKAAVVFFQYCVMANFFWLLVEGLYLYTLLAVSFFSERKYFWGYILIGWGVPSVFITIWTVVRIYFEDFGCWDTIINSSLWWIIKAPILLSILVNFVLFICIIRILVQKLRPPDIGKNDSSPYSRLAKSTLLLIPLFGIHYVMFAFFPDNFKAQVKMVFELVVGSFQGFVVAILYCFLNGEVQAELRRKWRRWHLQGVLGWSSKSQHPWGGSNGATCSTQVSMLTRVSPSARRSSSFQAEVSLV
Protocol: Rat receptor selectivity is estimated by comparing functional potency (cAMP generation) in CHO-PO cells transiently expressing rat VPAC1 or rat VPAC2 receptors. CHO-PO cells transiently expressing rat VPAC1 or VPAC2, are seeded with 10,000 cells/well three days before the assay. The cells are kept in 200 μL culture medium. […] The stimuli are present for 30 minutes. The assay buffer is then gently removed.

[2] = target: T2, human VPAC1 (Homo sapiens, UniProt P32241); test: Filter binding assay, membranes from cells transiently transfected with human VPAC1, 125I-labeled VIP tracer; details: read-out: Human receptor binding (IC50; nM) VPAC1
T2 construct: expressed in transfected cells
T2 sequence (P32241 31-457): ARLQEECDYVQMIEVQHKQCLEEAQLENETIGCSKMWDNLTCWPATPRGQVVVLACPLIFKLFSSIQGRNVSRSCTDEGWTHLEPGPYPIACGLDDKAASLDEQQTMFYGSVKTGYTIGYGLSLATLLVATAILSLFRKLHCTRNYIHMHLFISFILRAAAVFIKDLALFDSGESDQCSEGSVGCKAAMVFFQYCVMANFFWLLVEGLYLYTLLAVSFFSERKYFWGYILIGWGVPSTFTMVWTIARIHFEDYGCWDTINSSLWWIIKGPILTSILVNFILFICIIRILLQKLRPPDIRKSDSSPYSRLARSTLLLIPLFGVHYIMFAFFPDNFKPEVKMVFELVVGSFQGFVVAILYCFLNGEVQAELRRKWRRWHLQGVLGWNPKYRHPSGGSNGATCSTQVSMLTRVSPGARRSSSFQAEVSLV
Protocol: (§1) For this assay, the solutions and equipment include:
(§2) Presoak solution: 0.5% Polyethyleneamine in Aqua dest.
(§3) Buffer for flushing filter plates: 25 mM HEPES pH 7.4
(§4) Blocking buffer: 25 mM HEPES pH 7.4; 0.2% protease free BSA
(§5) Assay buffer: 25 mM HEPES pH 7.4; 0.5% protease free BSA
(§6) Dilution and assay plate: PS-Microplate, U form
(§7) Filtration Plate Multiscreen FB Opaque Plate; […] Type B Glasfiber filter
(§8) In order to prepare the filter plates, the presoak solution is aspirated by vacuum filtration. The plates are flushed twice with 200 μL flush buffer. 200 μL blocking buffer is added to the filter plate. The filter plate is then incubated with 200 μL presoak solution for 1 hour at room temperature.
(§9) The assay plate is filled with […] (2.5 μg) suspended in assay buffer, 25 μL compound (agonist) in assay buffer, and 25 μL tracer (about 40000 cpm) in assay buffer. The filled plate is incubated for 1 hour with shaking.
(§10) The transfer from assay plate to filter plate is conducted. The blocking buffer is aspirated by vacuum filtration and washed two times with flush buffer. 90 μL is transferred from the assay plate to the filter plate. The 90 μL transferred from assay plate is aspirated and washed three times with 200 μL flush buffer. The plastic support is removed. It is dried for 1 hour at 60° C. 30 μL Microscint is added. The count is performed.
(§11) Values reported are single results or the mean of two or more independent runs.

[3] = target: T3, human VPAC2 (Homo sapiens, UniProt P41587); test: Filter binding assay, membranes from stable VPAC2 cell line, 125I-labeled VIP tracer; details: read-out: Human receptor binding (IC50; nM) VPAC2
T3 construct: expressed in transfected cells
T3 sequence (P41587 24-438): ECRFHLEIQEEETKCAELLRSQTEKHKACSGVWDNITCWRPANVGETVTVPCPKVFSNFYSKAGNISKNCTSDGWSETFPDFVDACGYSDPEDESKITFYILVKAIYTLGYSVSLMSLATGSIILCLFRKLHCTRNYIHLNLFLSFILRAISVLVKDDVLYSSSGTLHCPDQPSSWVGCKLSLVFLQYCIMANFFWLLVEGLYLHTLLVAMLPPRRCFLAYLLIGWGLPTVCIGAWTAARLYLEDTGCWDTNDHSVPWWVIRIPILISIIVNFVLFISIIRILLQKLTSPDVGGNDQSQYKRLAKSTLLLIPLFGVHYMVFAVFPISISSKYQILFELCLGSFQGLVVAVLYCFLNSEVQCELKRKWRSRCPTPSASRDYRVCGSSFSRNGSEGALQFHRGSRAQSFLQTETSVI
Protocol: as §1, §2, §3, §4, §5, §6, §7, §8, §9, §10, §11

[4] = target: T3, human VPAC2; test: Alpha screen in vitro potency: human VPAC2-R mediated cAMP generation; format: cell-based; details: single results or mean of two or more independent runs
[5] = Pharmacokinetic profiles of PEGylated peptides, plasma peptide by RIA; format: in vivo, Fisher 344 rats; details: Fisher 344 rats, 100 μg compound/kg, plasma RIA, mean N = 3
Protocol: Pharmacokinetic profiles of PEGylated peptides. Healthy Fisher 344 rats (3 animals per group) are injected with 100 μg compound/kg (compound amount based on peptide content and dissolved in PBS buffer). […] PK parameters are then calculated using a model-independent method (WinNonlin Pro, Pharsight Corp., Mountain View, Calif., USA).

Substance	EC50 [1]	IC50 [2]	IC50 [3]	EC50 [4]	AUC0-last [5]	Cl/F [5]	Cmax [5]	Tmax [5]	T½ [5]
C6-HSDAVFTEQY(OMe)TOrnLRAibQVAK(CO(CH2)2SPEG40K)AibOrnYLQSIOrnOrnGGPSSGAPPPS-NH2 (HSDAVFTEQYTXLRXQVAXXXYLQSIXXGGPSSGAPPPS; non-natural residues) [Agonist P432]	> 100 nM	> 3000 nM	130 nM	20.1 nM	21471 ng·h/mL	0.083 mL/min/kg	392 ng/mL	16 h	35 h
C6-HDAVFTEQY(OMe)TOrnLRAibQVAAAibOrnYLQSIOrnOrnGGPSSGAPPPC(PEG60K)-NH2 [Agonist P404]	23.4 nM	> 3000 nM	13.1 nM	17 nM	6070 ng·h/mL	0.283 mL/min/kg	133 ng/mL	20 h	23 h
C6-HSDAVFTDNYTOrnLRAibQVAAAibKYLQC(PEG40K)IOrnNOrnGGPSSGAPPPS (HSDAVFTDNYTXLRXQVAAXKYLQCIXNXGGPSSGAPPPS; non-natural residues) [Agonist P373]	350 nM	> 25000 nM	111 nM	33.9 nM	10803 ng·h/mL	0.167 mL/min/kg	240 ng/mL	13 h	31 h
P137: PEGylated material obtained from P120 and methoxy-PEG2-MAL-40K (HSDAVFTDNYTRLRKQVAAKKYLQSIKNKRYGGPSSGAPPPC; also: PEGylated with methoxy-PEG2-MAL-40K, site not given here) [Agonist P137]	29.7 nM	853 nM	0.64 nM	8.31 nM					
